# From patent US20240287169A1 (AULOS BIOSCIENCE, published 2024)
# T1: Mouse IL-2 (mouse, UniProt P04351 21-169)
# T1 construct: Soluble analyte in SPR; also called mIL-2
# T1 sequence (looked up): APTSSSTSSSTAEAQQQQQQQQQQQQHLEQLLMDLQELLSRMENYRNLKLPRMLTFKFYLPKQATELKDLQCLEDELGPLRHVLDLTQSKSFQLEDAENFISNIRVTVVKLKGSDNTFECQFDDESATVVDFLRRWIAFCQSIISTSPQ
# B1: BDG17.023 IgG (antibody, V domains shown)
# VH: EIQLQQSGPELRRPGSSVKLSCKASGYNITDYLIHWVRHRPEHGLEWIGWIDPEDGETRYAQKFQSKATLTADTSSNAAYMQLSSLTPEDTATYFCARQLDSTYIYPFAYWGQGTLVTVSS
# VL: DIVMTQSPFSLAVSEGEMVTINCKSSQSLLRSGNQKNYLAWYQQKPGQSPKLLIYYASTGQSGVPDRFIGSGSGTDFTLTISDVQAEDLADYYCLQHYITPPTFGAGTKLELK
# notes: Human chimeric IgG1 with rat Fv
# B2: BDG JES6.1RMC (17.006) (antibody, V domains shown)
# VH: EIQLQQSGPELRRPGSSVKLSCKASGYNITDYLIHWVRHRPEHGLEWIGWIDPEDGETRYAQKFQSKATLTADTSSNAAYMQLSSLTPEDTATYFCARSLDSTYIYPFAYWGQGTLVTVSS
# VL: DIVMTQSPFSLAVSEGEMVTINCKSSQSLLSSGNQKNYLAWYQQKPGQSPKLLIYYASTGQSGVPDRFIGSGSGTDFTLTISDVQAEDLADYYCLQHYISPPTFGAGTKLELK
# notes: Rat Fv with a mouse IgG2a constant region
# B3: biotinylated human CD25 (receptor, UniProt P01589 22-213, looked up)
# chain: ELCDDDPPEIPHATFKAMAYKEGTMLNCECKRGFRRIKSGSLYMLCTGNSSHSSWDNQCQCTSSATRNTTKQVTPQPEEQKERKTTEMQSPMQPVDQASLPGHCREPPPWENEATERIYHFVVGQMVYYQCVQGYRALHRGPAESVCKMTHGKTRWTQPQLICTGEMETSQFPGEEKPQASPEGRPESETSC
# modifications: biotinylated
# notes: Captured on a streptavidin-coated chip; also called biotinylated hCD25
# B4: BDG17.066 (antibody, human IgG1, kappa, L234A L235A, V domains shown)
# VH: QVQLVQSGAEVKKPGSSVKVSCKASGYSITDSLIHWVRQAPGQGLEWMGWIDPEDGEINYAQKFQGRVTLTADTSTSTAYMELSSLRSEDTAVYYCARSLDSYPIDPFAYWGQGTLVTVSS
# VL: DIVMTQSPDSLAVSLGERATINCKSSQSLLRNGNQQNYLAWYQQKPGQPPKLLIYYASTGQSGVPDRFSGSGSGTDFTLTISSLQAEDVAVYYCQQHYVTPPTFGAGTKVEIKR
# notes: Humanized IgG1 with the LALA mutation (L234A, L235A)
# B5: BDG17.067 (antibody, human IgG1, kappa, L234A L235A, V domains shown)
# VH: QVQLVQSGAEVKKPGSSVKVSCKASGYSITDYLIHWVRQAPGQGLEWMGWIDPEDGVTAYAQKFQGRVTLTADTSTSTAYMELSSLRSEDTAVYYCARSLDYDPIYPFAYWGQGTLVTVSS
# VL: DIVMTQSPDSLAVSLGERATINCKSSQSLLRNGNQKNYLAWYQQKPGQPPKLLIYYASTGQSGVPDRFSGSGSGTDFTLTISSLQAEDVAVYYCQQHYVTPPTFGAGTKVEIKR
# notes: Humanized IgG1 with the LALA mutation; also called BDG17.0067
# B6: BDG17.053 (antibody, V domains shown)
# VH: QVQLVQSGAEVKKPGSSVKVSCKASGYSITDYLIHWVRQAPGQGLEWMGWIDPEDGETNYAQKFQGRVTLTADTSTSTAYMELSSLRSEDTAVYYCARSLDYDPIYPFAYWGQGTLVTVSS
# VL: DIVMTQSPDSLAVSLGERATINCKSSQSLLRNGNQKNYLAWYQQKPGQPPKLLIYYASTGQSGVPDRFSGSGSGTDFTLTISSLQAEDVAVYYCQQHYITPPTFGAGTKVEIK
# notes: Humanized IgG1
# B7: BDG17.038 (antibody, V domains shown)
# VH: QVQLVQSGAEVKKPGSSVKVSCKASGYSITDSLIHWVRQAPGQGLEWMGWIDPEDGEINYAQKFQGRVTLTADTSTSTAYMELSSLRSEDTAVYYCARSLDSYPIDPFAYWGQGTLVTVSS
# VL: DIVMTQSPDSLAVSLGERATINCKSSQSLLRNGNQQNYLAWYQQKPGQPPKLLIYYASTGQSGVPDRFSGSGSGTDFTLTISSLQAEDVAVYYCQQHYVTPPTFGAGTKVEIK
# notes: Humanized IgG1
# B8: BDG17.054 (antibody, V domains shown)
# VH: QVQLVQSGAEVKKPGSSVKVSCKASGYSITDDLIHWVRQAPGQGLEWMGWIDPEDGETNYAQKFQGRVTLTADTSTSTAYMELSSLRSEDTAVYYCARSLDSTWIYPFAYWGQGTLVTVSS
# VL: DIVMTQSPDSLAVSLGERATINCKSSQSLLRRGNQKNHLAWYQQKPGQPPKLLIYDASTGQSGVPDRFSGSGSGTDFTLTISSLQAEDVAVYYCLQSYITPPTFGAGTKVEIK
# notes: Humanized IgG1 without the LALA mutation
# B9: BDG17.043 (antibody, V domains shown)
# VH: QVQLVQSGAEVKKPGSSVKVSCKASGYSITDYLIHWVRQAPGQGLEWMGWIDPEDGVTAYAQKFQGRVTLTADTSTSTAYMELSSLRSEDTAVYYCARSLDYDPIYPFAYWGQGTLVTVSS
# VL: DIVMTQSPDSLAVSLGERATINCKSSQSLLRNGNQKNYLAWYQQKPGQPPKLLIYYASTGQSGVPDRFSGSGSGTDFTLTISSLQAEDVAVYYCQQHYVTPPTFGAGTKVEIK
# notes: Humanized IgG1; also called BDG017.043
# What was measured:
# [1] = target: T1, Mouse IL-2; assay: SPR Biacore T200, antibody captured, mIL-2 analyte
# Text: (§1) The SPR analysis was done on Biacore […] (GE healthcare, USA) on CM5 chips (cat:br10005-30, GE healthcare, USA). The chip was crosslinked with primary capture Ab against human IgG (Cat: br-1008-39, GE healthcare, USA) or primary capture antibody against mouse IgG (Cat: BR-1008-38, GE healthcare, USA) to a target of 8000RU. After cross-linking of the primary Ab, the mouse and human tested antibodies were immobilized on the primary Ab to a target of approximately additional 500RU. […] At the end of each cycle the analyte and tested antibody were stripped from the chip using 3M MgCl₂ and new tested Ab was loaded on the chip as described above. When indicated, instead of stripping the antibodies, kinetics was determined by injecting series of analyte concentrations in one cycle by the Single-cycle kinetics method. Binding kinetics were determined by the 1:1 Binding model using the Biacore T200 evaluation software.
# [2] = target: T2, Human IL-2 (human, UniProt P60568 21-153); assay: SPR Biacore T200, antibody captured, hIL-2 analyte
# T2 construct: Soluble analyte in the SPR experiments; also called hIL-2; recombinant human IL-2
# Text: as §1
# [3] = target: T1, Mouse IL-2; assay: SPR Biacore, antibody captured, mIL-2 analyte
# Text: as §1
# [4] = target: T3, Non-alpha-IL-2 (naIL-2, hIL-2/hCD25 conjugate) (human, UniProt P01589 22-240; P60568 21-153); assay: SPR, biotinylated hCD25 on the chip, naIL-2 injected
# T3 construct: Expressed in Expi293 cells; also called IL-2-CD25 conjugate; hIL-2/CD25 conjugated cytokine
# [5] = target: T2, Human IL-2; assay: SPR, multi-cycle, antibody captured, hIL-2 analyte
# Text: as §1
# [6] = target: T4, cynomolgus monkey IL-2 (cynomolgus monkey, UniProt Q29615 21-154); assay: SPR, multi-cycle, antibody captured, cynomolgus IL-2 analyte
# T4 construct: also called cIL-2
# Text: as §1
# [7] = target: T2, Human IL-2; assay: SPR, single-cycle, antibody captured, hIL-2 analyte
# Text: as §1
# [8] = target: T2, Human IL-2; assay: SPR, antibody captured on anti-human IgG CM5 chip, human IL-2 as analyte, single-cycle, 1:1 binding model
# Text: as §1
# [9] = target: T2, Human IL-2; assay: SPR, antibody captured on anti-human IgG CM5 chip, human IL-2 as analyte, multi-cycle, 1:1 binding model
# Text: as §1
# T2 sequence (P60568 21-153 limits assumed): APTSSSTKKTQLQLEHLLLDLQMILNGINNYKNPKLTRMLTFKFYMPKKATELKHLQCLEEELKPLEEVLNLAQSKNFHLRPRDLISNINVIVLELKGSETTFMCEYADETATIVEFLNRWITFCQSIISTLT
# T4 sequence (Q29615 21-154 limits assumed): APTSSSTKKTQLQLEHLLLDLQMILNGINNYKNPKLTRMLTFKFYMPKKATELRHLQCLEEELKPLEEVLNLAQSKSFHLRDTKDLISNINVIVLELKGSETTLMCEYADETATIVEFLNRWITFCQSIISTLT
binder,measurement,setting,value
B1,Kd,[1],2460 nM
same,koff,[1],0.0979 s⁻¹
same,kon,[1],39800 M⁻¹ s⁻¹
same,Kd,[2],0.0818 nM
same,koff,[2],0.00107 s⁻¹
same,kon,[2],1.31e+07 M⁻¹ s⁻¹
B2,Kd,[3],0.13 nM
same,koff,[3],6.3e-05 s⁻¹
same,kon,[3],480000 M⁻¹ s⁻¹
B3,binding result,[4],no binding (tested: 1 uM)
B4,Kd,[5],0.0515 nM
same,koff,[5],0.000785 s⁻¹
same,kon,[5],1.52e+07 M⁻¹ s⁻¹
B5,Kd,[5],0.011 nM
same,koff,[5],0.000372 s⁻¹
same,kon,[5],3.37e+07 M⁻¹ s⁻¹
same,Kd,[6],0.014 nM
same,koff,[6],0.000398 s⁻¹
same,kon,[6],2.83e+07 M⁻¹ s⁻¹
B6,Kd,[7],0.0643 nM
same,koff,[7],0.00254 s⁻¹
same,kon,[7],3.96e+07 M⁻¹ s⁻¹
same,kon,[8],3.39e+07 M⁻¹ s⁻¹
B7,Kd,[5],0.0202 nM
same,koff,[5],0.0002 s⁻¹
same,kon,[5],1.41e+07 M⁻¹ s⁻¹
same,koff,[9],0.0002 s⁻¹
B8,Kd,[7],0.0127 nM
same,koff,[7],0.0007 s⁻¹
same,kon,[7],5.5e+07 M⁻¹ s⁻¹
B9,Kd,[5],0.0482 nM
same,koff,[5],0.000222 s⁻¹
same,Kd,[9],0.0478 nM
same,koff,[9],0.000266 s⁻¹
same,kon,[9],3.39e+07 M⁻¹ s⁻¹
